As a reminder, the Kd is the concentration at which binding is half-saturated.

Results on one molecule are retold here after patent US20120121533, “NUCLEIC ACID LIGANDS TO LL37” (BIOTEX, INC., published 2012).

For the data set, the target named is T1, LL37 (human cathelicidin peptide LL-37) (Homo sapiens, UniProt P49913 P49913:134-170).
T1 chain: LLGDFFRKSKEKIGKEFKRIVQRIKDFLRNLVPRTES
Put plainly: SPR; biotinylated aptamer immobilised, increasing LL37 added; nonsense DNA on reference channel. As to conditions: label: biotin (immobilised on neutravidin SPR chip). How it is done: Aptamers were immobilized to the test channel of a neutravidin-coated SPR chip via standard biotin modification. A nonsense DNA was immobilized on the reference channel to identically match the electrostatic conditions of each channel, and then increasing concentrations of target protein LL37 were added such that no regeneration steps are required. The differential response to each dose was extracted and fit to a binding isotherm model to accurately determine Kd.
A general note: In SPR one partner is held on a chip, and binding of the other changes the refractive index at the surface.

On to ACTGGGTCTCACCATCGAAAATCGAAATGACTAAAAGGCC (ssDNA) [SEQ7 (Apta#222)], for which binding was characterised by a dissociation constant (Kd) of 118 nM.
